Assays:
[1] = target: T1, propargylated ubiquitin (Ub-PA) (UniProt P0CG48 1-75, propargylamine coupled to the C-terminus of ubiquitin 1-75); assay: suicide probe reaction (covalent adduct, SDS-PAGE, Coomassie); DUB prediluted to 10 µM, combined 1:1 with 100 µM probe in 20 mM TRIS pH 7, 150 mM NaCl, 10 mM DTT; 16 h at 4 °C; shifted band on Coomassie-stained gel; details: both partners purified
[2] = target: T1, propargylated ubiquitin (Ub-PA); assay: crystal structure; covalent complex of ZUFSP^232-578 and Ub-PA (100 µM + 200 µM, 18 h, 4 °C, SEC); crystals from 0.2 M sodium malonate pH 5, 20% PEG 3350, 4 °C; details: both partners purified

B1: Mug105 from the fission yeast Schizosaccharomyces pombe (enzyme, S. pombe, UniProt O13979 1-244, looked up)
chain: MSKCLQQLKRQLQHFGIDGCSLADGDIDYFFTVTGIDRGWGCGWRNIQMLISWLQYTNPNWFKRNFSSGNYEINSLQSLLLSAWMKGIDAEGYAQLGDNLHGKWIGATEVYSLFTGLFVNVALVDFDFRSEASASNALFLYVKKHFESSNDTSNVSPCYLQFQGHSIIIIGFCSSLETLVVLDPDRYQSVQKKFVNIADFNHCYMRKKRSLKFSQFQLVHFKQNIFLNDFSSKLEVRSTRISDF
notes: Mug105, S. pombe, cloned from genomic DNA; consists only of the core catalytic domain; source: E. coli Rosetta (DE3)pLysS, purified (HisTrap, tag removal with Senp1, SEC); not shown: His6, N-terminal, cleaved; Smt3, N-terminal, cleaved
binding result [1]: binds

B2: ZUFSP^232-578 (domain or fragment, human, UniProt Q96AP4 232-578, looked up)
chain: GDLQLAHQLQQEEDRKRRSEESRQEIEEFQKLQRQYGLDNSGGYKQQQLRNMEIEVNRGRMPPSEFHRRKADMMESLALGFDDGKTKTSGIIEALHRYYQNAATDVRRVWLSSVVDHFHSSLGDKGWGCGYRNFQMLLSSLLQNDAYNDCLKGMLIPCIPKIQSMIEDAWKEGFDPQGASQLNNRLQGTKAWIGACEVYILLTSLRVKCHIVDFHKSTGPLGTHPRLFEWILNYYSSEGEGSPKVVCTSKPPIYLQHQGHSRTVIGIEEKKNRTLCLLILDPGCPSREMQKLLKQDIEASSLKQLRKSMGNLKHKQYQILAVEGALSLEEKLARRQASQVFTAEKIP
notes: In the crystal the catalytic Cys-360 is covalently coupled to Ub-PA; also called the construct used for crystallization; source: E. coli Rosetta (DE3)pLysS, purified (HisTrap, tag removal with Senp1, SEC); not shown: His6, N-terminal, cleaved; Smt3, N-terminal, cleaved
binding result [2]: binds

B3: human ZUFSP, full length, bacterially expressed (enzyme, UniProt Q96AP4 1-578, looked up)
chain: MLSCNICGETVTSEPDMKAHLIVHMESEIICPFCKLSGVNYDEMCFHIETAHFEQNTLERNFERINTVQYGTSDNKKDNTLQCGMEVNSSILSGCASNHPKNSAQNLTKDSTLKHEGFYSENLTESRKFLKSREKQSSLTEIKGSVYETTYSPPECPFCGKIEEHSEDMETHVKTKHANLLDIPLEDCDQPLYDCPMCGLICTNYHILQEHVDLHLEENSFQQGMDRVQCSGDLQLAHQLQQEEDRKRRSEESRQEIEEFQKLQRQYGLDNSGGYKQQQLRNMEIEVNRGRMPPSEFHRRKADMMESLALGFDDGKTKTSGIIEALHRYYQNAATDVRRVWLSSVVDHFHSSLGDKGWGCGYRNFQMLLSSLLQNDAYNDCLKGMLIPCIPKIQSMIEDAWKEGFDPQGASQLNNRLQGTKAWIGACEVYILLTSLRVKCHIVDFHKSTGPLGTHPRLFEWILNYYSSEGEGSPKVVCTSKPPIYLQHQGHSRTVIGIEEKKNRTLCLLILDPGCPSREMQKLLKQDIEASSLKQLRKSMGNLKHKQYQILAVEGALSLEEKLARRQASQVFTAEKIP
notes: Zn-finger and UFSP domain protein (ZUFSP), human, cloned from HEK293 cDNA; also called ZUP1; C6orf113; source: E. coli Rosetta (DE3)pLysS, purified (HisTrap, tag removal with Senp1, SEC); not shown: His6, N-terminal, cleaved; Smt3, N-terminal, cleaved
binding result [1]: binds
